Measurements reported in publication PMC9482650, “Quantitative fragmentomics allow affinity mapping of interactomes” (Nature Communications, 2022).

Experiments:
Experiment in all cases: holdup assay
Set-up in all cases: key: below the threshold = too weak to quantify, mostly under pKd 3.1 to 4
Conditions in all cases: plain residues with an end cap or a label only (N-terminal biotin on a linker: ado-ado)
DLG2_2, Q15700 = target: DLG2_2, Q15700
MAGI2_4, Q86UL8 = target: MAGI2_4, Q86UL8
NHERF3_4, Q5T2W1 = target: T1, NHERF3_4, Q5T2W1
T1 sequence (Q5T2W1 373-468, limits assumed, looked up): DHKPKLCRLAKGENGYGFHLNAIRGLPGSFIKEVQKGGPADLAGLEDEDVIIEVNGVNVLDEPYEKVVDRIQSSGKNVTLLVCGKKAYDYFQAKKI

PDZD2_2, O15018 = target: T2, PDZD2_2, O15018
T2 sequence (O15018 329-429, limits assumed, looked up): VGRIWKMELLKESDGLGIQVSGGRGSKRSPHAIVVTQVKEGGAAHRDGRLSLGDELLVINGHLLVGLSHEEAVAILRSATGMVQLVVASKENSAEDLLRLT

SIPA1L2, Q9P2F8 = target: T3, SIPA1L2, Q9P2F8
T3 sequence (Q9P2F8 945-1036, limits assumed, looked up): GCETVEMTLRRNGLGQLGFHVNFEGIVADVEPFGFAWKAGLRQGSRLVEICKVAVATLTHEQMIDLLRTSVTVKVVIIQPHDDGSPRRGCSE

MAGI2_3, Q86UL8 = target: MAGI2_3, Q86UL8
Inadl_6, Q8NI35 = target: Inadl_6, Q8NI35
FRMPD2_1, Q68DX3 = target: FRMPD2_1, Q68DX3
GRIP2_4, Q9C0E4 = target: GRIP2_4, Q9C0E4
HTRA1, Q92743 = target: HTRA1, Q92743
SNTG1, Q9NSN8 = target: T4, SNTG1, Q9NSN8
T4 sequence (Q9NSN8 52-150, limits assumed, looked up): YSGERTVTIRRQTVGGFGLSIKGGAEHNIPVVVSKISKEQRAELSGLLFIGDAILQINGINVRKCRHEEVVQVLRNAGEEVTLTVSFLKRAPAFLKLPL

MAGI2_5, Q86UL8 = target: MAGI2_5, Q86UL8
SCRIB_2, Q14160 = target: SCRIB_2, Q14160
CASK, O14936 = target: CASK, O14936
HTRA4, P83105 = target: T5, HTRA4, P83105
T5 sequence (P83105 378-476, limits assumed, looked up): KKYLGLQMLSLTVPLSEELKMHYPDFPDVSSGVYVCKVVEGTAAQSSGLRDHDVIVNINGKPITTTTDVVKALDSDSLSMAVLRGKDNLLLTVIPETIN

NHERF4_2, Q86UT5 = target: NHERF4_2, Q86UT5
SNTA1, Q13424 = target: T6, SNTA1, Q13424
T6 sequence (Q13424 82-180, limits assumed, looked up): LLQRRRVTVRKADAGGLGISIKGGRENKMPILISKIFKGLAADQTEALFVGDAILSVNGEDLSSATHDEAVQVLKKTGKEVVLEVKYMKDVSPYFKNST

PICK1, Q9NRD5 = target: PICK1, Q9NRD5
GOPC, Q9HD26 = target: GOPC, Q9HD26
CARD11, Q9BXL7 = target: T7, CARD11, Q9BXL7
T7 sequence (Q9BXL7 662-765, limits assumed, looked up): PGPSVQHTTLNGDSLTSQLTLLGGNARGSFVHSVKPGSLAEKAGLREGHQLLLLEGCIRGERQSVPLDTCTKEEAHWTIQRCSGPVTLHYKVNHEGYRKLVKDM

MAST1, Q9Y2H9 = target: MAST1, Q9Y2H9
GRIP2_3, Q9C0E4 = target: GRIP2_3, Q9C0E4
LDB3, O75112 = target: LDB3, O75112
NHERF3_3, Q5T2W1 = target: T8, NHERF3_3, Q5T2W1
T8 sequence (Q5T2W1 238-333, limits assumed, looked up): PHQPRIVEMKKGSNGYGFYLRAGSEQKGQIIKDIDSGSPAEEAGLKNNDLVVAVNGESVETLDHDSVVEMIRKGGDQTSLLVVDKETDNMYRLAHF

LNX1_3, Q8TBB1 = target: LNX1_3, Q8TBB1
PTPN3, P26045 = target: PTPN3, P26045
GRIP1_2, Q9Y3R0 = target: T9, GRIP1_2, Q9Y3R0
T9 sequence (Q9Y3R0 145-248, limits assumed, looked up): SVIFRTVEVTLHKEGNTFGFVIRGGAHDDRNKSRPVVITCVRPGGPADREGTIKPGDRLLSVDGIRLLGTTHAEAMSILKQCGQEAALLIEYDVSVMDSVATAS

Inadl_5, Q8NI35 = target: Inadl_5, Q8NI35
TJP3_3, O95049 = target: T10, TJP3_3, O95049
T10 sequence (O95049 375-456, limits assumed, looked up): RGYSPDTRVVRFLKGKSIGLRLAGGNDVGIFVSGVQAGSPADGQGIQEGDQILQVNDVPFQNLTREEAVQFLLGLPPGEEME

Inadl_5, Q8NI35, sequence (Q8NI35 673-780): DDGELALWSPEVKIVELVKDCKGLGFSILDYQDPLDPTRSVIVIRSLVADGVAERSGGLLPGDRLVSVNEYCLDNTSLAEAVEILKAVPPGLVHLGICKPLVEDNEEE
LDB3, O75112, sequence (O75112 1-94): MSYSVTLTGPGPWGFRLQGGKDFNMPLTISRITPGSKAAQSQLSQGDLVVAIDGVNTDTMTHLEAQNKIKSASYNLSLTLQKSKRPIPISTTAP
Inadl_6, Q8NI35, sequence (Q8NI35 1058-1167): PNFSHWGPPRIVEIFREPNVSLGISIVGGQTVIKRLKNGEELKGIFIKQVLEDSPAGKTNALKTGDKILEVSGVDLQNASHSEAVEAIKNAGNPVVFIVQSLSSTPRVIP
LNX1_3, Q8TBB1, sequence (Q8TBB1 500-596): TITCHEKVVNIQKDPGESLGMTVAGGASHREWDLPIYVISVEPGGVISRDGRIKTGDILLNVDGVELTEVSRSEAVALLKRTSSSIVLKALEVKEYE
GRIP2_4, Q9C0E4, sequence (Q9C0E4 446-548): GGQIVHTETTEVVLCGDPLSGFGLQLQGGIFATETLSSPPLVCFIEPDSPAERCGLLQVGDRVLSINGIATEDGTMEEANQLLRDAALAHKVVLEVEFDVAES
NHERF4_2, Q86UT5, sequence (Q86UT5 220-308): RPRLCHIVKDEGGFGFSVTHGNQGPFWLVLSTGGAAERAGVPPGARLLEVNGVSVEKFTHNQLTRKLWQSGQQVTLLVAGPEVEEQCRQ
PICK1, Q9NRD5, sequence (Q9NRD5 17-115): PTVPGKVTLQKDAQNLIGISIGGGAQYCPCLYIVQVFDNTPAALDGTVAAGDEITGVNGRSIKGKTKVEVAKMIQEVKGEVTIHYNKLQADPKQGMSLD
MAGI2_5, Q86UL8, sequence (Q86UL8 915-1017): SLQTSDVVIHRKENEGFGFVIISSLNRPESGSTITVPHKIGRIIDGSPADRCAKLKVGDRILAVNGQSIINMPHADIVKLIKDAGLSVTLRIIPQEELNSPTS
PTPN3, P26045, sequence (P26045 505-587): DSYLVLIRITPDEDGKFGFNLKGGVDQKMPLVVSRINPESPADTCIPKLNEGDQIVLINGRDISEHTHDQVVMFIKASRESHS
MAST1, Q9Y2H9, sequence (Q9Y2H9 962-1065): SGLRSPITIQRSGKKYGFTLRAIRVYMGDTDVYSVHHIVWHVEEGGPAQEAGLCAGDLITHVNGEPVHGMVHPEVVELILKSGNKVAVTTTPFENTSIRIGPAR
FRMPD2_1, Q68DX3, sequence (Q68DX3 770-861): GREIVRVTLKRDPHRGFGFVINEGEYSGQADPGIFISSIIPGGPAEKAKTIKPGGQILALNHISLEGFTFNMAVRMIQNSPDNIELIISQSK
CASK, O14936, sequence (O14936 487-570): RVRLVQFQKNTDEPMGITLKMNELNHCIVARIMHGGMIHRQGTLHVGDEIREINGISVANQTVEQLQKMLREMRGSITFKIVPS
SCRIB_2, Q14160, sequence (Q14160 857-960): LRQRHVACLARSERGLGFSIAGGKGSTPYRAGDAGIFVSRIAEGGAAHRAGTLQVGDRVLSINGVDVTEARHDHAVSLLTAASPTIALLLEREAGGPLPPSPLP
GRIP2_3, Q9C0E4, sequence (Q9C0E4 238-339): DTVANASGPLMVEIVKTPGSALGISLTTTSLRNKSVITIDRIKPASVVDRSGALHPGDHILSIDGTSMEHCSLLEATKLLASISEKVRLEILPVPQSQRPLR
DLG2_2, Q15700, sequence (Q15700 189-283): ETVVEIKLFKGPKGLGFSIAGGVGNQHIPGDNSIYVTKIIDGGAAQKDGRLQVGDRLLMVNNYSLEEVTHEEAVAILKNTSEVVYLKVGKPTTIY
HTRA1, Q92743, sequence (Q92743 360-477): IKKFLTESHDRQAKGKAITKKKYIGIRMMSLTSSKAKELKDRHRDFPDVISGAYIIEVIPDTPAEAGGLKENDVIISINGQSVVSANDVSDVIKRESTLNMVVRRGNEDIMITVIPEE
MAGI2_4, Q86UL8, sequence (Q86UL8 772-865): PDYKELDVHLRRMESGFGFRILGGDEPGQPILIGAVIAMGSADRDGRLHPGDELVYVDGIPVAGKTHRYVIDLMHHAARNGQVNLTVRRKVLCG
MAGI2_3, Q86UL8, sequence (Q86UL8 600-682): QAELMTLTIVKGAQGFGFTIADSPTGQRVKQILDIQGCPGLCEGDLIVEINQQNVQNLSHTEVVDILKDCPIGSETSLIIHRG

ATKDKKITTV [EXOC4, Q96A65]
pKd (DLG2_2, Q15700): 5.75 | pKd (MAGI2_4, Q86UL8): 4.51 | pKd (NHERF3_4, Q5T2W1): below the threshold | pKd (PDZD2_2, O15018): 3.88 | pKd (SIPA1L2, Q9P2F8): 3.52 | pKd (MAGI2_3, Q86UL8): 3.57 | pKd (Inadl_6, Q8NI35): 3.53 | pKd (FRMPD2_1, Q68DX3): 3.54 | pKd (GRIP2_4, Q9C0E4): below the threshold | pKd (HTRA1, Q92743): 4.6 | pKd (SNTG1, Q9NSN8): 3.72 | pKd (MAGI2_5, Q86UL8): 3.63 | pKd (SCRIB_2, Q14160): 3.49 | pKd (CASK, O14936): below the threshold | pKd (HTRA4, P83105): 3.49 | pKd (NHERF4_2, Q86UT5): below the threshold | pKd (SNTA1, Q13424): 4.26 | pKd (PICK1, Q9NRD5): below the threshold | pKd (GOPC, Q9HD26): 3.87 | pKd (CARD11, Q9BXL7): below the threshold | pKd (MAST1, Q9Y2H9): below the threshold | pKd (GRIP2_3, Q9C0E4): 3.51 | pKd (LDB3, O75112): below the threshold | pKd (NHERF3_3, Q5T2W1): below the threshold | pKd (LNX1_3, Q8TBB1): below the threshold | pKd (PTPN3, P26045): 4.31 | pKd (GRIP1_2, Q9Y3R0): below the threshold | pKd (Inadl_5, Q8NI35): below the threshold | pKd (TJP3_3, O95049): below the threshold

GSQSQVETEA [FKBP4, Q02790]
pKd (DLG2_2, Q15700): below the threshold | pKd (MAGI2_4, Q86UL8): below the threshold | pKd (NHERF3_4, Q5T2W1): 3.73 | pKd (PDZD2_2, O15018): below the threshold | pKd (SIPA1L2, Q9P2F8): below the threshold | pKd (MAGI2_3, Q86UL8): below the threshold | pKd (Inadl_6, Q8NI35): below the threshold | pKd (FRMPD2_1, Q68DX3): 3.53 | pKd (GRIP2_4, Q9C0E4): below the threshold | pKd (HTRA1, Q92743): 3.85 | pKd (SNTG1, Q9NSN8): below the threshold | pKd (MAGI2_5, Q86UL8): below the threshold | pKd (SCRIB_2, Q14160): below the threshold | pKd (CASK, O14936): below the threshold | pKd (HTRA4, P83105): below the threshold | pKd (NHERF4_2, Q86UT5): below the threshold | pKd (SNTA1, Q13424): below the threshold | pKd (PICK1, Q9NRD5): below the threshold | pKd (GOPC, Q9HD26): below the threshold | pKd (CARD11, Q9BXL7): below the threshold | pKd (MAST1, Q9Y2H9): 3.96 | pKd (GRIP2_3, Q9C0E4): below the threshold | pKd (LDB3, O75112): below the threshold | pKd (NHERF3_3, Q5T2W1): below the threshold | pKd (LNX1_3, Q8TBB1): below the threshold | pKd (PTPN3, P26045): 4.08 | pKd (GRIP1_2, Q9Y3R0): below the threshold | pKd (Inadl_5, Q8NI35): below the threshold | pKd (TJP3_3, O95049): below the threshold

VKQYADVEGF [HNRNPK, P61978;P61978-2]
pKd (DLG2_2, Q15700): below the threshold | pKd (MAGI2_4, Q86UL8): below the threshold | pKd (NHERF3_4, Q5T2W1): below the threshold | pKd (PDZD2_2, O15018): below the threshold | pKd (SIPA1L2, Q9P2F8): below the threshold | pKd (MAGI2_3, Q86UL8): below the threshold | pKd (Inadl_6, Q8NI35): below the threshold | pKd (FRMPD2_1, Q68DX3): below the threshold | pKd (GRIP2_4, Q9C0E4): below the threshold | pKd (HTRA1, Q92743): below the threshold | pKd (SNTG1, Q9NSN8): below the threshold | pKd (MAGI2_5, Q86UL8): below the threshold | pKd (SCRIB_2, Q14160): below the threshold | pKd (CASK, O14936): below the threshold | pKd (HTRA4, P83105): below the threshold | pKd (NHERF4_2, Q86UT5): below the threshold | pKd (SNTA1, Q13424): below the threshold | pKd (PICK1, Q9NRD5): below the threshold | pKd (GOPC, Q9HD26): below the threshold | pKd (CARD11, Q9BXL7): below the threshold | pKd (MAST1, Q9Y2H9): below the threshold | pKd (GRIP2_3, Q9C0E4): below the threshold | pKd (LDB3, O75112): below the threshold | pKd (NHERF3_3, Q5T2W1): below the threshold | pKd (LNX1_3, Q8TBB1): below the threshold | pKd (PTPN3, P26045): 3.93 | pKd (GRIP1_2, Q9Y3R0): below the threshold | pKd (Inadl_5, Q8NI35): below the threshold | pKd (TJP3_3, O95049): below the threshold
